Residue numbers refer to the chain shown, from its start. Names and notes keep the numbering of the source.
T1: Atg12~Atg5-Atg16 complex (S. cerevisiae, UniProt P38316 1-186; Q12380 1-294; Q03818 1-150, conjugated to Atg5 (Atg12~Atg5 protein conjugate) | conjugated to Atg12)
T1 construct: Atg12, S. cerevisiae; Atg5, S. cerevisiae; Atg16, S. cerevisiae; conjugate made by co-expression with Atg7 and Atg10 (SMC131); details in Romanov et al., 2012; also called E3-like complex; source: E. coli Rosetta pLysS; Atg12~Atg5 conjugate mixed 1:1 with purified Atg16, purified by size exclusion chromatography; not shown: GST, N-terminal, cleaved; copies: + +
T1 sequence (looked up) 1: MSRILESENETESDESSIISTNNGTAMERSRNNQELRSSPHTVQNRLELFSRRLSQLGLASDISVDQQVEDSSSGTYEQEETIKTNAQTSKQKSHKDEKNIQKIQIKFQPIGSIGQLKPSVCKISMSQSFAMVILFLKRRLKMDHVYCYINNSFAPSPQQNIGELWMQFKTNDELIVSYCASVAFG
T1 sequence (looked up) 2: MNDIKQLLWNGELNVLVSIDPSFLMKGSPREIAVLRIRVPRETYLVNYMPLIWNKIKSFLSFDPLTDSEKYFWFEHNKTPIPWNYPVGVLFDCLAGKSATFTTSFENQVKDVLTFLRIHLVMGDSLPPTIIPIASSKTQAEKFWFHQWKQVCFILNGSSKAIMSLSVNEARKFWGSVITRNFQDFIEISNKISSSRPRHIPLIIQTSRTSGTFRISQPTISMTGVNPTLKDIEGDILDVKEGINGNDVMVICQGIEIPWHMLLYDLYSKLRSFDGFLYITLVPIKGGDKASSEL
T1 sequence (looked up) 3: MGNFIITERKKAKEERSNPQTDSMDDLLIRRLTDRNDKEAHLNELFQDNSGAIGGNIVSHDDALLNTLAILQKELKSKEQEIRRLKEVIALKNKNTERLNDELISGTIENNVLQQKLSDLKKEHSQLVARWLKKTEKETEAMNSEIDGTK

T2: GST-Atg19 (S. cerevisiae, UniProt P35193 1-415)
T2 construct: Atg19, S. cerevisiae cargo receptor; also called full length GST-Atg19; Atg19 full length; source: E. coli Rosetta pLysS, purified; not shown: GST, N-terminal, kept
T2 sequence (looked up): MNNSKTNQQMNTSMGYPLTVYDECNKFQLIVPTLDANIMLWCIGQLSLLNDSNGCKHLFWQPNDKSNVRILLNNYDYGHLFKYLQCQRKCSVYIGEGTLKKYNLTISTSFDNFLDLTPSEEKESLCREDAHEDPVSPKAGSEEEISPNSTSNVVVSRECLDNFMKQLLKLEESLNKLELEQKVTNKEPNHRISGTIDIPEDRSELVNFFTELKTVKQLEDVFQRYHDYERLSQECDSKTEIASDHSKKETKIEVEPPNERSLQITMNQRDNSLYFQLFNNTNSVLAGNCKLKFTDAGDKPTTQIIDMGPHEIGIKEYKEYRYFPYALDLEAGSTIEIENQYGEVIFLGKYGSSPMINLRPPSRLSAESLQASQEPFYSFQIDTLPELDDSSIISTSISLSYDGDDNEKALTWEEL

T3: Atg19 (S. cerevisiae, UniProt P35193 1-415)
T3 construct: Atg19, S. cerevisiae; printed without a tag; also called Atg19 wild type
T3 sequence (looked up): T2 sequence (looked up)

T4: Atg5-mCherry-Atg16 (1–46) complex (S. cerevisiae, UniProt Q12380 1-294; Q03818 1-46)
T4 construct: Atg5, S. cerevisiae; Atg16, S. cerevisiae, first 46 amino acids; a TEV site follows the His tag of Atg5; no cleavage is described; source: E. coli Rosetta pLysS, co-expressed, purified (Ni-NTA, Superdex 200); not shown: mCherry, C-terminal, kept
T4 sequence (looked up) 1: T1 sequence (looked up) 2
T4 sequence (looked up) 2: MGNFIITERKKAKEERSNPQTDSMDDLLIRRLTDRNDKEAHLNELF

T5: GFP-Atg8∆R117 (S. cerevisiae, UniProt P38182 1-116)
T5 construct: Atg8, S. cerevisiae, without its last residue R117; also called meGFP-Atg8∆R117; 6xHis-meGFP-Atg8∆R117; source: E. coli Rosetta pLysS, purified; not shown: meGFP, N-terminal, kept
T5 sequence (looked up): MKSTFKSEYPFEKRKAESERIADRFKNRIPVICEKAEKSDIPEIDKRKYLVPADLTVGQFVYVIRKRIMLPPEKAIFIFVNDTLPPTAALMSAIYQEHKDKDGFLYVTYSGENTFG

T6: Atg5-Atg16 complex (S. cerevisiae, UniProt Q12380 1-294; Q03818 1-150)
T6 construct: Atg5, S. cerevisiae; Atg16, S. cerevisiae; source: E. coli Rosetta pLysS; Atg5 cleaved from GST mixed 1:1 with purified Atg16, purified by size exclusion chromatography; not shown: GST, N-terminal, cleaved
T6 sequence (looked up) 1: T1 sequence (looked up) 2
T6 sequence (looked up) 2: T1 sequence (looked up) 3

T7: Atg12~Atg5 conjugate (S. cerevisiae, UniProt P38316 1-186; Q12380 1-294, conjugated to Atg5 (Atg12~Atg5 protein conjugate) | conjugated to Atg12)
T7 construct: Atg12, S. cerevisiae; Atg5, S. cerevisiae; the two chains are covalently joined; source: E. coli Rosetta pLysS, co-expression of 6xHis-Atg5, Atg12, Atg7 and Atg10, purified
T7 sequence (looked up) 1: T1 sequence (looked up) 1
T7 sequence (looked up) 2: T1 sequence (looked up) 2

T8: Atg5 (S. cerevisiae, UniProt Q12380 1-294)
T8 construct: Atg5, S. cerevisiae; in the co-purification with Atg16 (1–46) the GST was still on the protein while it was held on glutathione beads; also called GST-Atg5; source: E. coli Rosetta pLysS, on glutathione beads, cleaved off with thrombin; not shown: GST, N-terminal, cleaved
T8 sequence (looked up): T1 sequence (looked up) 2

B1: GST-Atg34 (natural protein, S. cerevisiae, UniProt Q12292 1-412, looked up)
chain: MKIAVETTLFDFFVIDQFKKSTFSAPNTKVDTIKGCINKFIEQFNVYDEQHIFWQPPGKSNVRLLSNANDFGQLGNFLHKKIKCNIFIGEEALRKYDLNICGPYDKFVENSDPSVKKVVNRDDVMLSRKCLNIISEQLSILEKSISKAQNQVLQSSEVEGKKCIILPEDKPELIKFFSKFETSVQLQEVYEGYKVYEKLLQKFGGQKKRMESFLNENTPMSGAEAIKQINISEELKEKGERLTTPNDPLLHVEVSNEDNSLHFILYNKTNIIIPGNCTFEFSSQISEVFSIKMGPHEIGIKGQKELWFFPSLPTPLSNYTMKVVNQDGETILVGKCADSNEITLKSPLASFSTGSFQTGSFHTLQDPTNVFRADALSSPDESSIMSTPFLGETDEVYNSGSTLSRPFTWEEI
notes: Atg34, S. cerevisiae cargo receptor; also called α-mannosidase (Ams1) receptor; source: E. coli Rosetta pLysS, purified; not shown: GST, N-terminal, kept
B2: Atg5-Atg16 (1–46) (complex, S. cerevisiae)
chain 1: T1 sequence (looked up) 2
chain 2: T4 sequence (looked up) 2
notes: Atg5, S. cerevisiae; Atg16, S. cerevisiae, first 46 amino acids; the His tag of Atg5 is followed by a TEV site; also called Atg5 stabilized with the N-terminal helix of Atg16; Atg5-Atg16 (1–46) wild type; source: E. coli, co-expressed and purified in complex
B3: Atg5-Atg16 (1–46) for analytical size exclusion chromatography (complex, S. cerevisiae)
chain 1: T1 sequence (looked up) 2
chain 2: T4 sequence (looked up) 2
notes: Atg5, S. cerevisiae; Atg16, S. cerevisiae, first 46 amino acids; source: E. coli Rosetta pLySS, co-expressed, purified (glutathione beads, thrombin, Superdex 200); not shown: GST, N-terminal, cleaved
B4: Atg5(R208E)-Atg16 (1–46) (complex, S. cerevisiae)
chain 1: T1 sequence (looked up) 2 with R208E
chain 2: T4 sequence (looked up) 2
notes: Atg5, S. cerevisiae; Atg16, S. cerevisiae, first 46 amino acids; source: E. coli, co-expressed and purified in complex
B5: Atg5(K137E)-Atg16 (1–46) (complex, S. cerevisiae)
chain 1: T1 sequence (looked up) 2 with K137E
chain 2: T4 sequence (looked up) 2
notes: as for B4
B6: GST-Atg19(365–407) (domain or fragment, S. cerevisiae, UniProt P35193 365-407, looked up)
chain: SAESLQASQEPFYSFQIDTLPELDDSSIISTSISLSYDGDDNE
notes: Atg19, S. cerevisiae; also called Atg19 C-terminal domain with the canonical AIM motif deleted; source: E. coli Rosetta pLysS, purified; not shown: GST, N-terminal, kept
B7: GST-Atg19(365–415) (domain or fragment, S. cerevisiae, UniProt P35193 365-415, looked up)
chain: SAESLQASQEPFYSFQIDTLPELDDSSIISTSISLSYDGDDNEKALTWEEL
notes: Atg19, S. cerevisiae, C-terminal domain; also called Atg19 C-terminal domain; Atg19 CTD (365-415); source: E. coli Rosetta pLysS, purified; not shown: GST, N-terminal, kept
B8: Atg16 (natural protein, S. cerevisiae, UniProt Q03818 1-150, looked up)
chain: T1 sequence (looked up) 3
notes: Atg16, S. cerevisiae; also called purified Atg16; GST-Atg16; source: E. coli Rosetta pLysS, purified
B9: Atg16-meGFP (natural protein, S. cerevisiae, UniProt Q03818 1-150, looked up)
chain: T1 sequence (looked up) 3
notes: Atg16, S. cerevisiae; source: E. coli Rosetta pLysS, purified; not shown: meGFP, C-terminal, kept

What was measured:
Conditions in all cases: both partners purified
Atg12~Atg5-Atg16 complex = biological target: T1, Atg12~Atg5-Atg16 complex; test: pull-down; GST-fused bait 5 µM and GST-free prey 5 µM with glutathione Sepharose 4B, 1 hr at 4°C; washed with 25 mM HEPES pH 7.5, 150 mM NaCl, 1 mM DTT and 0.1% TritonX100; Western blot (Figures 1A, 1C, 2A, 2C)
GST-Atg19 [1] = biological target: T2, GST-Atg19; test: as above
Atg19 = biological target: T3, Atg19; test: SEC; Atg19 and Atg5-Atg16 (1–46) premixed at 55 µM, concentrated to 580 µM, Superose 6 PC 3.2/30, 25 mM HEPES pH 7.5, 150 mM NaCl, 1 mM DTT; fractions on Coomassie gels
GST-Atg19 [2] = biological target: T2, GST-Atg19; test: pull-down; GST-fused bait 20 µM and GST-free prey 5 µM with glutathione Sepharose 4B, 1 hr at 4°C; washed with 25 mM HEPES pH 7.5, 150 mM NaCl, 1 mM DTT; anti-Atg5 Western blot (Figure 2E, Figure 3—figure supplement 1, Figure 4C)
Atg5-Atg16 (1–46) = biological target: B2; test: as above
[3] = biological target: T4, Atg5-mCherry-Atg16 (1–46) complex; test: microscopy-based protein-protein interaction assay on beads; glutathione beads coated with GST-fused proteins at 30 µM, Atg5-mCherry-Atg16 (1–46) 18 µM, equilibrium (Figure 3B, C)
GFP-Atg8∆R117 = biological target: T5, GFP-Atg8∆R117; test: microscopy-based competition assay on beads; beads coated with GST-Atg19(365–415) at 30 µM, Atg5-mCherry-Atg16 (1–46) 18 µM; then GFP-Atg8∆R117 18 µM (1x), then Atg8 400 µM (22x); 25 mM HEPES pH 7.5, 150 mM NaCl, 1 mM DTT (Figure 3E, F)
Atg5-Atg16 complex = biological target: T6, Atg5-Atg16 complex; test: pull-down; GST-fused bait 20 µM and GST-free prey 5 µM with glutathione Sepharose 4B, 1 hr at 4°C; washed with 25 mM HEPES pH 7.5, 150 mM NaCl, 1 mM DTT; anti-Atg5 Western blot (Figure 2E, Figure 3—figure supplement 1, Figure 4C)
Atg12~Atg5 conjugate = biological target: T7, Atg12~Atg5 conjugate; test: SEC; separately purified proteins mixed in a molar ratio 1:1 for 30 min at 4°C or on ice; the resulting complex purified on Superdex S200 16/60
Atg5 = biological target: T8, Atg5; test: as above

B1
binding result (Atg12~Atg5-Atg16 complex): binds

B2
binding result (GST-Atg19 [1]): binds

B3
binding result (Atg19): binds

B4
binding result (GST-Atg19 [2]): binds

B5
binding result (GST-Atg19 [2]): binds

B6
binding result (Atg5-Atg16 (1–46)): binds
binding result [3]: binds

B7
binding result (GFP-Atg8∆R117): binds
binding result (Atg5-Atg16 complex): binds
binding result (Atg5-Atg16 (1–46)): binds
binding result [3]: binds

B8
binding result (Atg12~Atg5 conjugate): binds
binding result (Atg5): binds

B9
binding result (Atg5): binds

Reference: PMC5148612, “Mechanism of cargo-directed Atg8 conjugation during selective autophagy” (eLife, 2016)
